Assay in all cases: cell-based or functional assay
In assay [1] the target is T1, human CLDN6 (human, UniProt P56747 1-220).
T1 sequence: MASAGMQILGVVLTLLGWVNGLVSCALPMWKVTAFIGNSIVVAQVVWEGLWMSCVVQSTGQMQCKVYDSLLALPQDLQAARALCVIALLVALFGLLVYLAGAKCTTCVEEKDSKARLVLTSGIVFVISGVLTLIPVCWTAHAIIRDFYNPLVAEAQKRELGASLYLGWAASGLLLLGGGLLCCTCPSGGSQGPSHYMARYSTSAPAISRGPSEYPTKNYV

Assay [2] concerns the target T2, human CLDN9 (human, UniProt O95484 1-217).
T2 sequence: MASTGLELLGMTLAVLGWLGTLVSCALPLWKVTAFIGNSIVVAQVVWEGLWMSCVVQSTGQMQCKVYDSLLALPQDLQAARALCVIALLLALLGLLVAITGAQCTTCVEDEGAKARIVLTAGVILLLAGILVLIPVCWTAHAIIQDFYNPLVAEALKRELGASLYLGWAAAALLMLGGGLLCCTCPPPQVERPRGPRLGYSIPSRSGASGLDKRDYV

Assay [3] has as its target T3, human CLDN4 (human, UniProt O14493 1-209).
T3 sequence (looked up): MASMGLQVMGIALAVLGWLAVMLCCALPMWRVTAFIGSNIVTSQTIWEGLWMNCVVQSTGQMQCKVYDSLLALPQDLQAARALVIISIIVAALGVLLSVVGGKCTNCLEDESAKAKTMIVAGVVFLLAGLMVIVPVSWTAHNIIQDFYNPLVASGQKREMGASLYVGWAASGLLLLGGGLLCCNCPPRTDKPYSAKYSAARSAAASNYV

B1: SC27.103 (antibody, V domains shown)
VH: EVHLQQSGPELVKPGGSMKISCKASGYSFTGYTMNWVKQSHGKNLEWIGLFNPYNGGTSYNQKFKGKATLTVDKSSSTAYMELLSLTSEDSAVYYCARCYRYDGLDYWGQGTTLTVSS
VL: QIVLTQSPAIMSASLGERVTMTCTASSSVSSSYLHWYQQKPGSSPTLWIYRTSDLASGVPARFSGSGSGTSYSLTISSMEAEDAATYYCHQYHRSPWTFGGGTRLEIK
For the molecule B1, the “apparent IC50, killing of HEK293T cells overexpressing hCLDN6 with anti-mouse Fab-saporin, CellTiter-Glo” value in assay [1] was 57.7 nM. Further, the “apparent IC50, killing of HEK293T cells overexpressing hCLDN9 with anti-mouse Fab-saporin, CellTiter-Glo” value in assay [2] turned out to be 466 nM. In assay [3], the “apparent IC50, killing of HEK293T cells overexpressing hCLDN4 with anti-mouse Fab-saporin, CellTiter-Glo” value is over 2000 nM.

B2: SC27.108 (antibody, V domains shown)
VH: QVQMQQSGAELVRPGTSVKVSCKASGYAFTNYLIEWVKQRPGQGLEWIGLINPGSGGTNYNEKFKGKATLTADKSSTTAYMQLSSLTSDDSAVYFCARRSPLGSWIYYAYDGVAYWGQGTLVTVSA
VL: EIVLTQSPALMAASPGEKVTITCSVSSSISSSNLHWYQQKSGTSPKLWIYGTSNLASGVPVRFSGSGSGTSYSLTISNMEAEDAATYYCQQWSSYPHTFGGGTKLEIK
For B2, the “apparent IC50, killing of HEK293T cells overexpressing hCLDN6 with anti-mouse Fab-saporin, CellTiter-Glo” value in assay [1] was found to be 102 nM. The “apparent IC50, killing of HEK293T cells overexpressing hCLDN9 with anti-mouse Fab-saporin, CellTiter-Glo” value in assay [2] was over 2000 nM. In addition, the “apparent IC50, killing of HEK293T cells overexpressing hCLDN4 with anti-mouse Fab-saporin, CellTiter-Glo” value in assay [3] is over 2000 nM.

B3: SC27.204 (antibody, V domains shown)
VH: EVKVLESGGGLVQPGGSLKLSCAASGFDFSRYWMSWVRQAPGKGLEWIGEINPDSSTINYTPSLKAKFIISRDNAKNTLYLQMSKVRSEDTALYYCTGPAYWGQGTLVTVSA
VL: DIVMTQSQKFMSTSVGDRVSVACKAGQNVGTSVAWYQQKPGHSPKSLIYSASYRYSGVPNRFTGSGSGTDFTLTISNVQSEDLADYFCQQYITYPYTFGGGTKLEII
For B3, in assay [1], the “apparent IC50, killing of HEK293T cells overexpressing hCLDN6 with anti-mouse Fab-saporin, CellTiter-Glo” value was determined as 25.2 nM. Further, the “apparent IC50, killing of HEK293T cells overexpressing hCLDN9 with anti-mouse Fab-saporin, CellTiter-Glo” value in assay [2] is 16.9 nM. Besides, the “apparent IC50, killing of HEK293T cells overexpressing hCLDN4 with anti-mouse Fab-saporin, CellTiter-Glo” value in assay [3] was over 2000 nM.

B4: SC27.105 (antibody, V domains shown)
VH: EVQLQQSGPELVKPGASVKISCKASGYSFTGYYMNWVKQSPEKSLEWIGEINPSTGSTTYNQKFKAKATLTVDKSSSTAYMQLKSLTSEDSAVYYCARRDYYYGSGFYAMDYWGQGTSVTVSS
VL: DVQMTQSPSSLSASLGERVSLTCQASQSVSNNLNWYQQTPGKAPRLLIYGASKLEDGVSSRFSGTGYGTDFTFTISSLEEEDVATYFCLQHRYLWTFGGGTKLEIK
For B4, in assay [1], the “apparent IC50, killing of HEK293T cells overexpressing hCLDN6 with anti-mouse Fab-saporin, CellTiter-Glo” value came out at 235 nM. Further, the “apparent IC50, killing of HEK293T cells overexpressing hCLDN9 with anti-mouse Fab-saporin, CellTiter-Glo” value in assay [2] was over 2000 nM. For the same molecule, the “apparent IC50, killing of HEK293T cells overexpressing hCLDN4 with anti-mouse Fab-saporin, CellTiter-Glo” value in assay [3] is over 2000 nM.

B5: SC27.201 (antibody, V domains shown)
VL: DIQMTQSSSSFSVSLGDRVTITCKASEDIYNRLAWYQQKPGNAPRLLISGATSLEAGVPSGFSGSGSGKDYTLSITSLQTEDVATYYCQQYWSTPPTFGGGTKLELK
V domain: EVQLQQSGPELVKPGASVKISCKTSGYTFTENIRHWVKQSRGKSLEWIGTINPNNGETRYNQKFKGKATLTVDKSSSTAYMELRSLTSEDSAVYYCTRGITKSPYGMDYWGQGTSITVSS
With B5, the “apparent IC50, killing of HEK293T cells overexpressing hCLDN6 with anti-mouse Fab-saporin, CellTiter-Glo” value in assay [1] is 48.2 nM. In addition, the “apparent IC50, killing of HEK293T cells overexpressing hCLDN9 with anti-mouse Fab-saporin, CellTiter-Glo” value in assay [2] was 155 nM. Moreover, the “apparent IC50, killing of HEK293T cells overexpressing hCLDN4 with anti-mouse Fab-saporin, CellTiter-Glo” value in assay [3] was determined as 69.7 nM.

B6: SC27.104 (antibody, V domains shown)
VH: EVQLQQSGPELVKPGASVKISCKTSGYTFTEYTVHWVKQSHGKSLEWIGGVYPKNGDTTYNQKFRGKATLTVDKSSNTAYMELRSLTSEDSAVYYCTGKDGYDGFAYWGQGTLVTVSA
VL: DIQMTQSSSSFSVSLGDRVTITCKASEDIYNRLAWYQQKPGNAPRLLISGATSLETGVPSRFSGSGSGKDYTLSITSLQTEDVATYYCQQYWSNPPTFGGGTKLEIK
B6: in assay [1], the “apparent IC50, killing of HEK293T cells overexpressing hCLDN6 with anti-mouse Fab-saporin, CellTiter-Glo” value was determined as 284 nM. Also, the “apparent IC50, killing of HEK293T cells overexpressing hCLDN9 with anti-mouse Fab-saporin, CellTiter-Glo” value in assay [2] was over 2000 nM. In addition, the “apparent IC50, killing of HEK293T cells overexpressing hCLDN4 with anti-mouse Fab-saporin, CellTiter-Glo” value in assay [3] worked out at 969 nM.

(Values after patent publication US20190083645A1 (AbbVie / Abbott, published 2019).)
